Measurements: patent US20110225664, “MEGANUCLEASE VARIANTS CLEAVING A DNA TARGET SEQUENCE FROM A GLUTAMINE SYNTHETASE GENE AND USES THEREOF” (Cellectis, published 2011)
Where a chain is given by its changes, count along the chain named.

Columns and labels:
Experiment in all cases: cell_activity; CHO extrachromosomal SSA assay
[1] = target: T1, I-CreI heterodimer Mt 3C + Mt 4B (Chlamydomonas reinhardtii (engineered), UniProt P05725;P05725 SEQ:1-167,SEQ:1-167)
T1 chain 1: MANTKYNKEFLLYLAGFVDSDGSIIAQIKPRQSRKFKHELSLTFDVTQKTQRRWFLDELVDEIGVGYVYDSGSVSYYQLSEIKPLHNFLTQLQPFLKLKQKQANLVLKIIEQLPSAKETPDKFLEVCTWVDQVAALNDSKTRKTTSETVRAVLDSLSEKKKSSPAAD
T1 chain 2: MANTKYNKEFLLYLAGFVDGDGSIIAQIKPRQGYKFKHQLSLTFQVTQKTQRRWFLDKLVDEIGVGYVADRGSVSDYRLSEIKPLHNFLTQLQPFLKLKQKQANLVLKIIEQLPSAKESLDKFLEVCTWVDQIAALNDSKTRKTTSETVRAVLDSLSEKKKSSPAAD
Protocol: (§1) CHO cells were transfected with Polyfect® transfection reagent according to the supplier's protocol (QIAGEN). 72 hours after transfection, the level of Beta galactosidase expression for each transfection was quantified using the Beta-Glo® Assay System (Promega). The Beta-Glo Assay contains a luciferin-galactoside substrate (6-O-β-galactopyranosylluciferin) that can be cleaved by β-galactosidase to form luciferin that is then utilized in a firefly luciferase reaction to generate light. For each transfection, approximately 100,000 cells in 100 μl of medium were combined with an equal volume of Beta-Glo lysis/revelation buffer as described by the manufacturer (Promega). After 30 minutes of incubation at room temperature, signal was measured with a luminometer (Perkin Elmer Victor multilabel plate reader).
(§2) Several variants described in examples 3, 5, 6, 7 and 8 were first recloned in pCLS1768 (FIG. 16). Then, in order to identify the heterodimer displaying the maximal cleavage activity with the GSCHO1 target in CHO cells, I-CreI variants cleaving the GSCHO1.3 or GSCHO1.4 targets (described in examples 3, 5, 6, 7 and 8) were tested together as heterodimers against the GSCHO1 target in the CHO extrachromosomal assay.

[2] = target: T2, I-CreI heterodimer Mt 3B + Mt 4A (Chlamydomonas reinhardtii (engineered), UniProt P05725;P05725 SEQ:1-167,SEQ:1-167)
T2 chain 1: T1 chain 1 with S20A, E58K, T119S, D121A, V133I
T2 chain 2: T1 chain 2 with G20S, Q45K, V46M, A69H, R78I, L120P
Protocol: as §1, §2

[3] = target: T3, I-CreI heterodimer Mt 3A + Mt 4D (Chlamydomonas reinhardtii (engineered), UniProt P05725;P05725 SEQ:1-167,SEQ:1-167)
T3 chain 1: T1 chain 1 with S20G, E58K, Y67H, T119S
T3 chain 2: T1 chain 2 with Q45R, A69H, R78I, L120P
Protocol: as §1, §2

[4] = target: T4, I-CreI heterodimer Mt 3C + Mt 4D (Chlamydomonas reinhardtii (engineered), UniProt P05725;P05725 SEQ:1-167,SEQ:1-167)
T4 chain 1: T1 chain 1
T4 chain 2: T1 chain 2 with Q45R, A69H, R78I, L120P
Protocol: as §1, §2

[5] = target: T5, I-CreI heterodimer Mt 3A + Mt 4B (Chlamydomonas reinhardtii (engineered), UniProt P05725;P05725 SEQ:1-167,SEQ:1-167)
T5 chain 1: T1 chain 1 with S20G, E58K, Y67H, T119S
T5 chain 2: T1 chain 2
Protocol: as §1, §2

[6] = target: T6, I-CreI heterodimer Mt 3B + Mt 4B (Chlamydomonas reinhardtii (engineered), UniProt P05725;P05725 SEQ:1-167,SEQ:1-167)
T6 chain 1: T1 chain 1 with S20A, E58K, T119S, D121A, V133I
T6 chain 2: T1 chain 2
Protocol: as §1, §2

[7] = target: T7, I-CreI heterodimer Mt 3B + Mt 4D (Chlamydomonas reinhardtii (engineered), UniProt P05725;P05725 SEQ:1-167,SEQ:1-167)
T7 chain 1: T1 chain 1 with S20A, E58K, T119S, D121A, V133I
T7 chain 2: T1 chain 2 with Q45R, A69H, R78I, L120P
Protocol: as §1, §2

[8] = target: T8, I-CreI heterodimer Mt 3B + Mt 4C (Chlamydomonas reinhardtii (engineered), UniProt P05725;P05725 SEQ:1-167,SEQ:1-167)
T8 chain 1: T1 chain 1 with S20A, E58K, T119S, D121A, V133I
T8 chain 2: T1 chain 2 with G33S, Y34R, L120P
Protocol: as §1, §2

[9] = target: T9, I-CreI heterodimer Mt 3A + Mt 4A (Chlamydomonas reinhardtii (engineered), UniProt P05725;P05725 SEQ:1-167,SEQ:1-167)
T9 chain 1: T1 chain 1 with S20G, E58K, Y67H, T119S
T9 chain 2: T1 chain 2 with G20S, Q45K, V46M, A69H, R78I, L120P
Protocol: as §1, §2

[10] = target: T10, I-CreI heterodimer Mt 3A + Mt 4C (Chlamydomonas reinhardtii (engineered), UniProt P05725;P05725 SEQ:1-167,SEQ:1-167)
T10 chain 1: T1 chain 1 with S20G, E58K, Y67H, T119S
T10 chain 2: T1 chain 2 with G33S, Y34R, L120P
Protocol: as §1, §2

[11] = target: T11, I-CreI heterodimer Mt 3C + Mt 4C (Chlamydomonas reinhardtii (engineered), UniProt P05725;P05725 SEQ:1-167,SEQ:1-167)
T11 chain 1: T1 chain 1
T11 chain 2: T1 chain 2 with G33S, Y34R, L120P
Protocol: as §1, §2

B1: GSCHO1 (dsDNA)
DNA 1: TGGCATACAAGTTTCTGCCCCAGGGTGAGAAAGTCCAACAATCGTCTGTCA
DNA 2: TGACAGACGATTGTTGGACTTTCTCACCCTGGGGCAGAAACTTGTATGCCA
Question: How did the activity [1] turn out when B1 was run?
Answer: Its activity is 2.8e+06 luminescence units.

Question: And the activity [2]?
Answer: The activity was 500000 luminescence units.

Question: What about the activity [3] of the same binder?
Answer: The activity was 2.5e+06 luminescence units.

Question: What about the activity [4] of the same binder?
Answer: The activity was 2.4e+06 luminescence units.

Question: And the activity [5]?
Answer: The activity was 2.3e+06 luminescence units.

Question: And the activity [6]?
Answer: Its activity is 3.1e+06 luminescence units.

Question: And the activity [7]?
Answer: Its activity is 3.1e+06 luminescence units.

Question: And the activity [8]?
Answer: The activity was 3.1e+06 luminescence units.

Question: What about the activity [9] of the same binder?
Answer: The activity was 2.8e+06 luminescence units.

Question: What about the activity [10] of the same binder?
Answer: Its activity is 2e+06 luminescence units.

Question: And the activity [11]?
Answer: The activity was 2.9e+06 luminescence units.
